{
  "source": "the nanobody polyreactivity screen of Harvey et al. (2022)",
  "data": [
    {"test": "yeast display, Sf9 membrane polyspecificity reagent, FACS + sequencing; frameworks hold sequencing errors", "summary_of_the_method": "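Galactose induction of a Saccharomyces cerevisiae BJ5465 synthetic nanobody display library ran 36–48 hours. The cells were then stained for 1 hour at 4 °C with 10% biotinylated, detergent-solubilized Sf9 membrane reagent, pulled down on streptavidin microbeads and FACS-sorted into low and high (top ~1%) gates on expression and reagent-binding fluorescence. Labels for polyreactivity follow the gate of origin.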", "values": [
      {"sequence": "QVQLVESGGGLVQAGGSLRLICAASGSIFSRNAMGWYRQAPGKERELVASISWSSDITNYADSGKGRFTISRDNAKNTVYLEMNSLKAEDTAVYYCNVDGLLGERFSWGYDYWRQGTQVTVSS", "polyreactivity (PSR sort gate)": "low polyreactivity"},
      {"sequence": "QVQLVESGGGLVQAGGSLRLSCAASGLTFELYAMGWYRQAPGKERELVAAITWSGGRTYYADSVKGRFTISRDNAKNTVYLQMNSLKPEDTAVYYCAADVYPGYVGSQEYDYWGQGTQVTVSS", "polyreactivity (PSR sort gate)": "low polyreactivity"},
      {"sequence": "QVQLVESWGGLVQAGGSLRLSCAASGIIRSNAMGWYRQAPGKERELVAVISSSGGRTYYADSVKGRFTISRDNAKNTVYLQMNSLKPEDTAVYYCAAQVQVGAFSYYYWGQGTQVTVSS", "polyreactivity (PSR sort gate)": "high polyreactivity"},
      {"sequence": "QVQLVESGGGLVQAGGSLRLSCAASGSTFYYYVMGWYRQAPGKERELVAAISSGGHTNYADSVKGRFTISRDNAKNTVYLQMNILKPEDTAVYYCAAKPWRGTLLRYGYWGQGTQVTVSS", "polyreactivity (PSR sort gate)": "high polyreactivity"},
      {"sequence": "QVQLVESGGGLVQAGGSLRLSCAASGRTFRYYAMGWYRQAPGKESELVAAIRTRGASTYYADSVKGRFTISRDNAKNTVYLQMNSLKPEDTAVYYCAKRAHFSSARHVYYIYDYWGQGTQVTVSS", "polyreactivity (PSR sort gate)": "low polyreactivity"},
      {"sequence": "QVQLVESGGGLVQAGGSLRLSCAASGITFAQYAMGWYRQAPGKERELVAGITRSGGSTHYADSVKGRFTISRDNAKNSVYLQMNSLKPEDTAVYYCAKGLSTGRAYRGYDYWGQGTQVTVSS", "polyreactivity (PSR sort gate)": "high polyreactivity"},
      {"sequence": "QVQLVESGGGLVQAGGSLRLSCAASGFIFRRYAMGWYRQAPGKERELVAAITAGGGNTYYADSVKGRFTISRDNAKNTVYLQMHSLKPEDTAVYYCAAAGRWYYHGYNYWGQGTQVTVSS", "polyreactivity (PSR sort gate)": "high polyreactivity"},
      {"sequence": "QVQLVESGGGLVQAGGSLRLSCAASGSTFVGNVMGWYRQAPGKERELVATISRSGGRTYYADSVKGRFTISRDNAKNTVYLQMNSLKPEDTAVYYCAAGFVYTTASRWGGRTRYDYWGQGTQVTVSS", "polyreactivity (PSR sort gate)": "high polyreactivity"},
      {"sequence": "QVQLVESGGGLVQAGGSLRLSCAASGFTFGSYAMGWYRQAPGKERELVARISSDGSTNYAVSVNGRFTISRDNAKNTVYLQMNSLKPEDTAVYYCAADPVHRFPGTGGYWGQGTQVTVSS", "polyreactivity (PSR sort gate)": "low polyreactivity"},
      {"sequence": "QVQLVESGGGLVQAGGSLRLSCAASGIIFSPYAMGWYRQAPGKERELVAAISYSGGSTYYADSVKGRYTISRDNAKNSVYLQMNSLKPEETAVYYCAVFYSYYLAFMGYWDYDYWGQGTQVTVSS", "polyreactivity (PSR sort gate)": "low polyreactivity"},
      {"sequence": "QVQLVESGGGLVQAGGSLRLSCAASGIIFRTYDMGWYRQAPGKERELVANISWSAGSTYYADSVKGRFTISRDNAKNTVYLQMNSLKPEDTAVYFCNAVRLYPSSYDYWGQGTQVTVSS", "polyreactivity (PSR sort gate)": "low polyreactivity"},
      {"sequence": "QVQLVESGGGLVQSGGSLRLSCAASGFSFRYYAMGWYRQAPGKERELVAAITQSGGTTYYADSVKGRFTISRDNAKNTVYLQMNSLKPEDTAVYYCNGYGYGFTGKGDYWGQGTQVTVSS", "polyreactivity (PSR sort gate)": "high polyreactivity"},
      {"sequence": "QVQLVESGGGLVQAGGSLRLSCAASGSTINHYAMGWYRQAPGKERELVAAISWSGGSTRYADSVKGRFTISRDNAKNTVYLQMNSLKPEDTAVYYCAARGYGKYYYWGQGTQVTVSS", "polyreactivity (PSR sort gate)": "high polyreactivity"},
      {"sequence": "QVQLVESGGGLVQAGGSLRLSCAASGITFGIYVMGCYRQAPGKEREFVATMSRSDDNTYYADSVKGRFTISRDNAKNTVYLQRNSLKPEDTAVYYCAADGVISAWYSSRDDYWGQGTQVTVSS", "polyreactivity (PSR sort gate)": "low polyreactivity"},
      {"sequence": "QVQLVESGGGLVQAGGSLRLSCAASGSIFVYNAMGWYRQAPGKERELVAGITFIGGSTYYADSVKGRFTISRDNPKNTVYLQMNSLKPEDTAVYYCNADVAPGIFYGYDSWGQGTQVTVSS", "polyreactivity (PSR sort gate)": "low polyreactivity"},
      {"sequence": "QVQLVESGGGLVQAGGSLRLSCAASGRIFRRYAMGWYRQAPWKERELVAAISTSGVRTYYADSVKGRFTISRDNAKNTVYLQMNSLNPEDTAVYYCATVAGPPYDYWGQGTLVTVSS", "polyreactivity (PSR sort gate)": "high polyreactivity"},
      {"sequence": "QVQLVESGGGLVQAGGSLRLSCAASGFIIYFNAMGWYRQPRGKERELVASITSGASTNYADSVKGRFTISRDNAKNTVYLQMNSLKPEDTAVYYCAAAYFWLDPYVEYDYWGQGTQVTVSS", "polyreactivity (PSR sort gate)": "low polyreactivity"},
      {"sequence": "QVQLVESGGGLVQAGGRLSLSCAASGSIFRPNPMGWYRQAPGKERELVAAITWSGDSTYYADSVKGRFTISRDNAKNTVYLKMNSLKPEDTAVYYCAADFTYQGSSANDYWGQGTQVTVSS", "polyreactivity (PSR sort gate)": "low polyreactivity"},
      {"sequence": "QDQLVESGGGLFQAGGSLRLSCAASGGIFGFYAMGWSRKAPGKERELVAAISWGGGSTYYADSVKGRFTISRDNAKNTVYLQMNSLKPEDTAFYYCAADPALTIEYGYWGQVTQVTVSS", "polyreactivity (PSR sort gate)": "low polyreactivity"},
      {"sequence": "QVQLVESGGGLVQAGGSLRLSCAPSGRTFRYYTMGWYRQAPGKERELVAAISSAGRTYYADSVKGRFTISRDNAKNTVYLQMNSLKPEDTAVYYCAAYGGDKIRMDYWGQGTQVTVSS", "polyreactivity (PSR sort gate)": "high polyreactivity"},
      {"sequence": "QVQLVESGGGLFQAGGSLRLSCAASGRTFAYYTMGWYRQAPGKERELVAAITSSGGSTYYADSEKGRFTISRDNAKNTVYLQMNSLKPEDTAVYYCNAYGLRWASRLGYDYWGQGTQVTVSS", "polyreactivity (PSR sort gate)": "high polyreactivity"},
      {"sequence": "QVQLVESGGGLVQAGGSLRLSCAASGRTFFNYAMGWYRQAPGKERELVAAISFSDGSTYYADSVKGRFTISRDNAKNTVYLQMNSLKPEDTADYYCAAQPGRRAGRSGFDYWGQGTQVTVSS", "polyreactivity (PSR sort gate)": "high polyreactivity"},
      {"sequence": "QVQLVESGGGLVQAGGSLRLSCAASGSTFAYYAMGWYRQAPGKERELVAAISVSGGRTYYADSVKGRFTISRDNAKNTVYLQMNSLKPEDTAVYYCAARLWRDYYWGQGTQVTVSS", "polyreactivity (PSR sort gate)": "high polyreactivity"},
      {"sequence": "QVQLVESGGGLVQAGGSLRLSCAASGRTFVDSVMGWYRQAPGKERELVAAISRSGSTYYADSVKGRFTISRDNAKNTVYLQMNSLKPEDTAVYYCAADWSFNRSSGQYGFYYWGQGTQVTVSS", "polyreactivity (PSR sort gate)": "low polyreactivity"},
      {"sequence": "QVQLVESGGRLVQAGGSLRLSCPASGSTFGVYAMGWYRPEPGKEREFVAAINYSGRTYYADSVKGLFTISRDNAKITVYLQMNSLKPEDTAVYYCNADFFYRYYGAYDYWGQGNQVTVSS", "polyreactivity (PSR sort gate)": "high polyreactivity"},
      {"sequence": "QVQLVESGGGLVQAGGSLRLSCAASGSIFGYYAMGWYRQAPGKERELVAAIDSGGSTYYADSVKGRFTISRDNAKNTVYLQMNSLKPEDTAVYYCATDYSGLRYDYWGQGTQVTVSS", "polyreactivity (PSR sort gate)": "low polyreactivity"},
      {"sequence": "QVQLVESGGGLVQARGSLRLSCAASGSIFYNYGMGWYRQAPGKERELVAAIRASGDSTYYADSVKGRFTISRDNAKNTVYLQMNSLKPEDTAVYYCAARPNQSYYGLYYYWGQGTQVTVSS", "polyreactivity (PSR sort gate)": "low polyreactivity"},
      {"sequence": "QVQLVESGGGLVQAGGSLRLSCAASGSIFWYNAKGWYRQAPGKERELVAAINWGGGSTYYADSVKGRFTISRDNAKNTVYLEMNSLTPEDTAVYYCNADQQVDHATVSQRDGYDYWGQGTQVTVSS", "polyreactivity (PSR sort gate)": "low polyreactivity"},
      {"sequence": "QVQLVESGGGLVQAGGSLRLSCAASGSTFRYSAMGWDRQAPGKEREFVAAISWSGSSTYYADSVKGRFTISRDNAKNTVYLQMNILKPEDTAGYYCAARYRYRSSSYDYWGQGTQVTVSS", "polyreactivity (PSR sort gate)": "high polyreactivity"},
      {"sequence": "QVQLVESGGGLVQAGGSLRVSCAASGSTFRHYAMGWSRQAPGKEWELVAAISSTGGSTYYADSVKGRFTISRDNAKNTVYLQMNSLKPEDTAVYYCAARRLYWGQGTQVTVSS", "polyreactivity (PSR sort gate)": "high polyreactivity"}
    ]}
  ]
}
